In PMC6842167 (Retrovirology, 2019):

Biological target: T1, Recombinant human two-domain CD4 (Homo sapiens)
T1 construct: also called 2dCD4; N-terminal two domain fragment of human CD4
Assay: ELISA; decreasing concentrations of 2dCD4 immobilised directly on a 96 well plate; antibodies at 1 µg/ml; anti-human HRP secondary, absorbance at 450 nm
Details: both partners purified

B1: ibalizumab (antibody, V domains shown)
VH: QVQLQQSGPEVVKPGASVKMSCKASGYTFTSYVIHWVRQKPGQGLDWIGYINPYNDGTDYDEKFKGKATLTSDTSTSTAYMELSSLRSEDTAVYYCAREKDNYATGAWFAYWGQGTLVTVSS
VL: DIVMTQSPDSLAVSLGERVTMNCKSSQSLLYSTNQKNYLAWYQQKPGQSPKLLIYWASTRESGVPDRFSGSGSGTDFTLTISSVQAEDVAVYYCQQYYSYRTFGGGTKLEIK
notes: also called iMab; parental iMab antibody; source: HEK293T, transiently transfected, purified (Protein-A, SEC); copies: + +
binding result: binds
